# Measurements taken from publication PMC10540216, “Activity Guided Azide-methyllysine Photo-trapping for Substrate Profiling of Lysine Demethylases” (Journal of the American Chemical Society, 2023).
# Test system: KDM4A-I71AzF
# Experiment: CASI: photo-crosslinking with HEK293T cell extracts, StrepTactin enrichment and LC-MS/MS proteomics;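 note: lysates from HEK293T cells pretreated with a KDM4 inhibitor to raise proteome methylation, affinity-purified after ±UV, gel-resolved, trypsin-digested, with exclusive unique peptides per protein averaged per condition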
# Type: binding, human
# Settings: sheet "Final results but with 0.01"
row,Molecule,Fold change (+UV/-UV)
1,"NONO_HUMAN (protein, UniProt Q15233 1-471, looked up) Non-POU domain-containing …: MQSNKTFNLEKQNHTPRKHHQHHHQQQHHQQQQQQPPPPPIPANGQQASSQNEGLTIDLKNFRKPGEKTFTQRSRLFVGNLPPDITEEEMRKLFEKYGKAGEVFIHKDKGFGFIRLETRTLAEIAKVELDNMPLRGKQLRVRFACHSASLTVRNLPQYVSNELLEEAFSVFGQVERAVVIVDDRGRPSGKGIVEFSGKPAARKALDRCSEGSFLLTTFPRPVTVEPMDQLDDEEGLPEKLVIKNQQFHKEREQPPRFAQPGSFEYEYAMRWKALIEMEKQQQDQVDRNIKEAREKLEMEMEAARHEHQVMLMRQDLMRRQEELRRMEELHNQEVQKRKQLELRQEEERRRREEEMRRQQEEMMRRQQEGFKGTFPDAREQEIRMGQMAMGGAMGINNRGAMPPAPVPAGTPAPPGPATMMPDGTLGLTPPTTERFGQAATMEGIGAIGGTPPAFNRAAPGAEFAPNKRRRY",1.778
2,"ACINU_HUMAN (protein, UniProt Q9UKV3 1-1341, looked up) Apoptotic chromatin …: MWRRKHPRTSGGTRGVLSGNRGVEYGSGRGHLGTFEGRWRKLPKMPEAVGTDPSTSRKMAELEEVTLDGKPLQALRVTDLKAALEQRGLAKSGQKSALVKRLKGALMLENLQKHSTPHAAFQPNSQIGEEMSQNSFIKQYLEKQQELLRQRLEREAREAAELEEASAESEDEMIHPEGVASLLPPDFQSSLERPELELSRHSPRKSSSISEEKGDSDDEKPRKGERRSSRVRQARAAKLSEGSQPAEEEEDQETPSRNLRVRADRNLKTEEEEEEEEEEEEDDEEEEGDDEGQKSREAPILKEFKEEGEEIPRVKPEEMMDERPKTRSQEQEVLERGGRFTRSQEEARKSHLARQQQEKEMKTTSPLEEEEREIKSSQGLKEKSKSPSPPRLTEDRKKASLVALPEQTASEEETPPPLLTKEASSPPPHPQLHSEEEIEPMEGPAPAVLIQLSPPNTDADTRELLVSQHTVQLVGGLSPLSSPSDTKAESPAEKVPEESVLPLVQKSTLADYSAQKDLEPESDRSAQPLPLKIEELALAKGITEECLKQPSLEQKEGRRASHTLLPSHRLKQSADSSSSRSSSSSSSSSRSRSRSPDSSGSRSHSPLRSKQRDVAQARTHANPRGRPKMGSRSTSESRSRSRSRSRSASSNSRKSLSPGVSRDSSTSYTETKDPSSGQEVATPPVPQLQVCEPKERTSTSSSSVQARRLSQPESAEKHVTQRLQPERGSPKKCEAEEAEPPAATQPQTSETQTSHLPESERIHHTVEEKEEVTMDTSENRPENDVPEPPMPIADQVSNDDRPEGSVEDEEKKESSLPKSFKRKISVVSATKGVPAGNSDTEGGQPGRKRRWGASTATTQKKPSISITTESLKSLIPDIKPLAGQEAVVDLHADDSRISEDETERNGDDGTHDKGLKICRTVTQVVPAEGQENGQREEEEEEKEPEAEPPVPPQVSVEVALPPPAEHEVKKVTLGDTLTRRSISQQKSGVSITIDDPVRTAQVPSPPRGKISNIVHISNLVRPFTLGQLKELLGRTGTLVEEAFWIDKIKSHCFVTYSTVEEAVATRTALHGVKWPQSNPKFLCADYAEQDELDYHRGLLVDRPSETKTEEQGIPRPLHPPPPPPVQPPQHPRAEQREQERAVREQWAEREREMERRERTRSEREWDRDKVREGPRSRSRSRDRRRKERAKSKEKKSEKKEKAQEEPPAKLLDDLFRKTKAAPCIYWLPLTDSQIVQKEAERAERAKEREKRRKEQEEEEQKEREKEAERERNRQLEREKRREHSRERDRERERERERDRGDRDRDRERDRERGRERDRRDTKRHSRSRSRSTPVRDRGGRR",2
3,"IF4A2_HUMAN (protein, UniProt Q14240 1-407, looked up) Eukaryotic initiation factor …: MSGGSADYNREHGGPEGMDPDGVIESNWNEIVDNFDDMNLKESLLRGIYAYGFEKPSAIQQRAIIPCIKGYDVIAQAQSGTGKTATFAISILQQLEIEFKETQALVLAPTRELAQQIQKVILALGDYMGATCHACIGGTNVRNEMQKLQAEAPHIVVGTPGRVFDMLNRRYLSPKWIKMFVLDEADEMLSRGFKDQIYEIFQKLNTSIQVVLLSATMPTDVLEVTKKFMRDPIRILVKKEELTLEGIKQFYINVEREEWKLDTLCDLYETLTITQAVIFLNTRRKVDWLTEKMHARDFTVSALHGDMDQKERDVIMREFRSGSSRVLITTDLLARGIDVQQVSLVINYDLPTNRENYIHRIGRGGRFGRKGVAINFVTEEDKRILRDIETFYNTTVEEMPMNVADLI",200
4,"PAIRB_HUMAN (protein, UniProt Q8NC51 2-408, looked up) SERPINE1 mRNA-binding protein …: PGHLQEGFGCVVTNRFDQLFDDESDPFEVLKAAENKKKEAGGGGVGGPGAKSAAQAAAQTNSNAAGKQLRKESQKDRKNPLPPSVGVVDKKEETQPPVALKKEGIRRVGRRPDQQLQGEGKIIDRRPERRPPRERRFEKPLEEKGEGGEFSVDRPIIDRPIRGRGGLGRGRGGRGRGMGRGDGFDSRGKREFDRHSGSDRSSFSHYSGLKHEDKRGGSGSHNWGTVKDELTESPKYIQKQISYNYSDLDQSNVTEETPEGEEHHPVADTENKENEVEEVKEEGPKEMTLDEWKAIQNKDRAKVEFNIRKPNEGADGQWKKGFVLHKSKSEEAHAEDSVMDHHFRKPANDITSQLEINFGDLGRPGRGGRGGRGGRGRGGRPNRGSRTDKSSASAPDVDDPEAFPALA",0.8571
5,"LMNA_HUMAN (protein, UniProt P02545 1-661, looked up) Prelamin-A/C: METPSQRRATRSGAQASSTPLSPTRITRLQEKEDLQELNDRLAVYIDRVRSLETENAGLRLRITESEEVVSREVSGIKAAYEAELGDARKTLDSVAKERARLQLELSKVREEFKELKARNTKKEGDLIAAQARLKDLEALLNSKEAALSTALSEKRTLEGELHDLRGQVAKLEAALGEAKKQLQDEMLRRVDAENRLQTMKEELDFQKNIYSEELRETKRRHETRLVEIDNGKQREFESRLADALQELRAQHEDQVEQYKKELEKTYSAKLDNARQSAERNSNLVGAAHEELQQSRIRIDSLSAQLSQLQKQLAAKEAKLRDLEDSLARERDTSRRLLAEKEREMAEMRARMQQQLDEYQELLDIKLALDMEIHAYRKLLEGEEERLRLSPSPTSQRSRGRASSHSSQTQGGGSVTKKRKLESTESRSSFSQHARTSGRVAVEEVDEEGKFVRLRNKSNEDQSMGNWQIKRQNGDDPLLTYRFPPKFTLKAGQVVTIWAAGAGATHSPPTDLVWKAQNTWGCGNSLRTALINSTGEEVAMRKLVRSVTVVEDDEDEDGDDLLHHHHGSHCSSSGDPAEYNLRSRTVLCGTCGQPADKASASGSGAQVGGPISSGSSASSVTVTRSYRSVGGSGGGSFGDNLVTRSYLLGNSSPRTQSPQNC",1.25
6,"ECHB_HUMAN (protein, UniProt P55084 34-474, looked up) Trifunctional enzyme subunit …: AAPAVQTKTKKTLAKPNIRNVVVVDGVRTPFLLSGTSYKDLMPHDLARAALTGLLHRTSVPKEVVDYIIFGTVIQEVKTSNVAREAALGAGFSDKTPAHTVTMACISANQAMTTGVGLIASGQCDVIVAGGVELMSDVPIRHSRKMRKLMLDLNKAKSMGQRLSLISKFRFNFLAPELPAVSEFSTSETMGHSADRLAAAFAVSRLEQDEYALRSHSLAKKAQDEGLLSDVVPFKVPGKDTVTKDNGIRPSSLEQMAKLKPAFIKPYGTVTAANSSFLTDGASAMLIMAEEKALAMGYKPKAYLRDFMYVSQDPKDQLLLGPTYATPKVLEKAGLTMNDIDAFEFHEAFSGQILANFKAMDSDWFAENYMGRKTKVGLPPLEKFNNWGGSLSLGHPFGATGCRLVMAAANRLRKEGGQYGLVAACAAGGQGHAMIVEAYPK",0
7,"HNRPL_HUMAN (protein, UniProt P14866 1-589, looked up) Heterogeneous nuclear …: MSRRLLPRAEKRRRRLEQRQQPDEQRRRSGAMVKMAAAGGGGGGGRYYGGGSEGGRAPKRLKTDNAGDQHGGGGGGGGGAGAAGGGGGGENYDDPHKTPASPVVHIRGLIDGVVEADLVEALQEFGPISYVVVMPKKRQALVEFEDVLGACNAVNYAADNQIYIAGHPAFVNYSTSQKISRPGDSDDSRSVNSVLLFTILNPIYSITTDVLYTICNPCGPVQRIVIFRKNGVQAMVEFDSVQSAQRAKASLNGADIYSGCCTLKIEYAKPTRLNVFKNDQDTWDYTNPNLSGQGDPGSNPNKRQRQPPLLGDHPAEYGGPHGGYHSHYHDEGYGPPPPHYEGRRMGPPVGGHRRGPSRYGPQYGHPPPPPPPPEYGPHADSPVLMVYGLDQSKMNCDRVFNVFCLYGNVEKVKFMKSKPGAAMVEMADGYAVDRAITHLNNNFMFGQKLNVCVSKQPAIMPGQSYGLEDGSCSYKDFSESRNNRFSTPEQAAKNRIQHPSNVLHFFNAPLEVTEENFFEICDELGVKRPSSVKVFSGKSERSSSGLLEWESKSDALETLGFLNHYQMKNPNGPYPYTLKLCFSTAQHAS",1.125
8,"TBB5_HUMAN (protein, UniProt P07437 1-444, looked up) Tubulin beta chain: MREIVHIQAGQCGNQIGAKFWEVISDEHGIDPTGTYHGDSDLQLDRISVYYNEATGGKYVPRAILVDLEPGTMDSVRSGPFGQIFRPDNFVFGQSGAGNNWAKGHYTEGAELVDSVLDVVRKEAESCDCLQGFQLTHSLGGGTGSGMGTLLISKIREEYPDRIMNTFSVVPSPKVSDTVVEPYNATLSVHQLVENTDETYCIDNEALYDICFRTLKLTTPTYGDLNHLVSATMSGVTTCLRFPGQLNADLRKLAVNMVPFPRLHFFMPGFAPLTSRGSQQYRALTVPELTQQVFDAKNMMAACDPRHGRYLTVAAVFRGRMSMKEVDEQMLNVQNKNSSYFVEWIPNNVKTAVCDIPPRGLKMAVTFIGNSTAIQELFKRISEQFTAMFRRKAFLHWYTGEGMDEMEFTEAESNMNDLVSEYQQYQDATAEEEEDFGEEAEEEA",0.75
9,"LMNB1_HUMAN (protein, UniProt P20700 2-583, looked up) Lamin-B1: ATATPVPPRMGSRAGGPTTPLSPTRLSRLQEKEELRELNDRLAVYIDKVRSLETENSALQLQVTEREEVRGRELTGLKALYETELADARRALDDTARERAKLQIELGKCKAEHDQLLLNYAKKESDLNGAQIKLREYEAALNSKDAALATALGDKKSLEGDLEDLKDQIAQLEASLAAAKKQLADETLLKVDLENRCQSLTEDLEFRKSMYEEEINETRRKHETRLVEVDSGRQIEYEYKLAQALHEMREQHDAQVRLYKEELEQTYHAKLENARLSSEMNTSTVNSAREELMESRMRIESLSSQLSNLQKESRACLERIQELEDLLAKEKDNSRRMLTDKEREMAEIRDQMQQQLNDYEQLLDVKLALDMEISAYRKLLEGEEERLKLSPSPSSRVTVSRASSSRSVRTTRGKRKRVDVEESEASSSVSISHSASATGNVCIEEIDVDGKFIRLKNTSEQDQPMGGWEMIRKIGDTSVSYKYTSRYVLKAGQTVTIWAANAGVTASPPTDLIWKNQNSWGTGEDVKVILKNSQGEEVAQRSTVFKTTIPEEEEEEEEAAGVVVEEELFHQQGTPRASNRSC",0.7273
10,"ATPA_HUMAN (protein, UniProt P25705 44-553, looked up) ATP synthase F(1) complex …: QKTGTAEMSSILEERILGADTSVDLEETGRVLSIGDGIARVHGLRNVQAEEMVEFSSGLKGMSLNLEPDNVGVVVFGNDKLIKEGDIVKRTGAIVDVPVGEELLGRVVDALGNAIDGKGPIGSKTRRRVGLKAPGIIPRISVREPMQTGIKAVDSLVPIGRGQRELIIGDRQTGKTSIAIDTIINQKRFNDGSDEKKKLYCIYVAIGQKRSTVAQLVKRLTDADAMKYTIVVSATASDAAPLQYLAPYSGCSMGEYFRDNGKHALIIYDDLSKQAVAYRQMSLLLRRPPGREAYPGDVFYLHSRLLERAAKMNDAFGGGSLTALPVIETQAGDVSAYIPTNVISITDGQIFLETELFYKGIRPAINVGLSVSRVGSAAQTRAMKQVAGTMKLELAQYREVAAFAQFGSDLDAATQQLLSRGVRLTELLKQGQYSPMAIEEQVAVIYAGVRGYLDKLEPSKITKFENAFLSHVVSQHQALLGTIRADGKISEQSDAKLKEIVTNFLAGFEA",1.4
